We go through 2 molecules from article PMC9982451.

The target of the data set is T1, SBDMmo (sulfur binding domain of Type IV REase MmoMcrA) (Morganella morganii).
T1 chain: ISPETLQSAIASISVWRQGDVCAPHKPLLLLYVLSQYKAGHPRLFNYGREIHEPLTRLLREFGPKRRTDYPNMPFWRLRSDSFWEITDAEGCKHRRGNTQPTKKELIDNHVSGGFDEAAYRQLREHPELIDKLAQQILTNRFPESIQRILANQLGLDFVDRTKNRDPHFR
Nature of the data set: EMSA. On the technique in general: Mobility shift assays separate free from complexed probe on a gel.

B1: PT-dsDNA GGCC-10F/10R (dsDNA)
DNA 1: GTCGGCCCCA
DNA 2: TGGGGCCGAC
modifications: phosphorothioate between G4 and G5 of strand 1 (hemi-PT; stereochemistry not stated)
Consider B1, for which the binding result was “binds”.

B2: PT-ssDNA GGCC-10F (ssDNA)
DNA: GTCGGCCCCA
modifications: phosphorothioate between G4 and G5 (stereochemistry not stated)
Regarding B2, the binding result is given as “no binding”.
